The results in this text go back to patent publication US7897573B2, “Selective VPAC2 receptor peptide agonists” (priority 2005, dated 2011).

Data set [1] concerns the target T1, Human PAC1 Receptor (Homo sapiens, UniProt P41586).
T1 construct: expressed in transfected cells
T1 sequence (P41586 21-468): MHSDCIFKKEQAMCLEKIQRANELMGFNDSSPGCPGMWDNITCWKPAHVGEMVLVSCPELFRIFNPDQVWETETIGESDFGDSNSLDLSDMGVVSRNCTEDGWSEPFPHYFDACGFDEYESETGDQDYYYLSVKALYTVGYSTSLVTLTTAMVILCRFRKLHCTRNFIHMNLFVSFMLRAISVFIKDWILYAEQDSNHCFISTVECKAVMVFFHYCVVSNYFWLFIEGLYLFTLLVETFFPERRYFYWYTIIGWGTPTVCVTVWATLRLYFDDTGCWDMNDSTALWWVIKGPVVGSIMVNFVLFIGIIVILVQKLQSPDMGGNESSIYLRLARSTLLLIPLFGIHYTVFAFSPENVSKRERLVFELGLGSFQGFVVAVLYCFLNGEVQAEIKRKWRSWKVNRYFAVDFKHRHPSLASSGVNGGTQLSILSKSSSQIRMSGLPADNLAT
Put plainly: Filter binding assay, 125I-labeled PACAP-27, membranes of cells transiently transfected with human PAC1. Conditions: 125I-labeled PACAP-27 tracer. As to the method: (§1) For this assay, the solutions and equipment include:
(§2) Presoak solution: 0.5% Polyethyleneamine in Aqua dest
(§3) Buffer for flushing filter plates: 25 mM HEPES pH 7.4
(§4) Blocking buffer: 25 mM HEPES pH 7.4; 0.2% protease free BSA
(§5) Assay buffer: 25 mM HEPES pH 7.4; 0.5% protease free BSA
(§6) Dilution and assay plate: PS-Microplate, U form
(§7) Filtration Plate Multiscreen FB Opaque Plate; […] Type B Glasfiber filter
(§8) In order to prepare the filter plates, the presoak solution is aspirated by vacuum filtration. The plates are flushed twice with 200 μL flush buffer. 200 μL blocking buffer is added to the filter plate. The filter plate is then incubated with 200 μL presoak solution for 1 hour at room temperature.
(§9) The assay plate is filled with 25 μL assay buffer, 25 μL membranes (2.5 μg) suspended in assay buffer, 25 μL agonist in assay buffer, and 25 μL tracer (about 40000 cpm) in assay buffer. The filled plate is incubated for 1 hour with shaking.
(§10) The transfer from assay plate to filter plate is conducted. The blocking buffer is aspirated by vacuum filtration and washed two times with flush buffer. 90 μL is transferred from the assay plate to the filter plate. The 90 μL transferred from assay plate is aspirated and washed three times with 200 μL flush buffer. The plastic support is removed. It is dried for 1 hour at 60° C. 30 μL Microscint is added. The count is performed.

Data set [2] has as its target T2, Human VPAC1 Receptor (Homo sapiens, UniProt P32241).
T2 construct: expressed in transfected cells
T2 sequence (P32241 31-457): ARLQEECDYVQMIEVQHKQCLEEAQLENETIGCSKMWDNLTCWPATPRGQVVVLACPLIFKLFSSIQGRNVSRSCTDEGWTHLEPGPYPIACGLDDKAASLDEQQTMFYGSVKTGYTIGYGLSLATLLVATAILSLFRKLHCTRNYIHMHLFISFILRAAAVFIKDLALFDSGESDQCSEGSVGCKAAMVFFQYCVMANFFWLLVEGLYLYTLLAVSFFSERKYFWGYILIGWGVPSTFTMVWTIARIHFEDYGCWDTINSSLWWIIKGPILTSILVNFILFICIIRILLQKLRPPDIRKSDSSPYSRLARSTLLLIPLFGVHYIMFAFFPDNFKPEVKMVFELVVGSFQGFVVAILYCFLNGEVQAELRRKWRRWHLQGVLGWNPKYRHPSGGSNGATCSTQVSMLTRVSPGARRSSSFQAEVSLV
Put plainly: Filter binding assay, 125I-labeled VIP, membranes of cells transiently transfected with human VPAC1. Conditions: 125I-labeled VIP tracer. As to the method:
as §1, §2, §3, §4, §5, §6, §7, §8, §9, §10

Data set [3] in a line: Rat serum stability study (DiscoveRx cAMP read-out on CHO-VPAC2 cells). The conditions noted are these: EC50, 4° C./EC50, 37° C., values >100% may represent release of intact peptide from the PEG conjugate; for 72 h stab (%): 72 h in rat serum at 37° C.; for 24 h stab (%): 24 h in rat serum at 37° C. On the procedure: In order to determine the stability of VPAC2 receptor peptide agonists in rat serum, CHO-VPAC2 cells clone #6 (96 well plates/50,000 cells/well and 1 day culture), PBS 1× (Gibco), the peptides for the analysis in a 100 μM stock solution, rat serum from a sacrificed normal Wistar rat, aprotinin, and a DiscoveRx assay kit are obtained. The rat serum is stored at 4° C. until use and is used within two weeks.
The aliquot is stored with aprotinin at 4° C. The aliquot is stored without aprotinin at 37° C. The aliquots are incubated for 24 or 72 hours.
On Day 1, after incubation of the aliquots prepared on day 0 for 24 or 72 hours, an incubation buffer containing PBS+1.3 mM CaCl2, 1.2 mM MgCl2, 2 mM glucose, and 0.25 mM IBMX is prepared. A plate with 11 serial 5× dilutions of peptide for the 4° C. and 37° C. aliquot is prepared for each peptide studied. […] The plate(s) are washed with cells twice in incubation buffer. The plates are allowed to hold 50 μL incubation media per well for 15 minutes. 50 μL solution per well is transferred to the cells from the plate prepared with 11 serial 5× dilutions of peptide for the 4° C. and 37° C. aliquot for each peptide studied, using the maximal concentrations that are indicated by the primary screen, in duplicate. This step dilutes the peptide concentration by a factor of two. The cells are incubated at room temperature for 30 minutes. The supernatant is removed. 40 μL/well of the DiscoveRx antibody/extraction buffer is added. The cells are incubated on the shaker (300 rpm) for 1 hour. Normal procedure with the DiscoveRx kit is followed. cAMP standards are included in column 12. EC50 values are determined from the cAMP assay data.

Data set [4] can be described thus: Pharmacokinetic profiles of PEGylated peptides in Fisher 344 rats. In kind it is in vivo, rat. Conditions: 100 μg agonist/kg, plasma RIA, mean N = 3. As to the method:
Pharmacokinetic profiles of PEGylated peptides. Healthy Fisher 344 rats (3 animals per group) were injected with 100 μg agonist/kg (agonist amount based on peptide content and dissolved in PBS buffer). Blood samples were drawn 3, 12, 24, 48, 72, 96 and 168 hour post dosing and the peptide content in plasma was analysed by a radio-immunoassay (RIA) directed against the N-terminus of the peptide. PK parameters were then calculated using a model-independent method (WinNonlin Pro, Pharsight Corp., Mountain View, Calif., USA).

*1 amine or outer side, *2 acyl side, *3 side chain or, on linkers, in order; H or OH if unused. Primed or numbered codes have the meaning given here. [ ]: non-standard residue; d: D form. The star is where a group is joined. Tyr(OMe)(3) = Tyr, methoxy (Y(OMe)), COc1ccc(C[C@H](N[*:1])C(=O)[*:2])cc1; WPEG40K = not defined here; Orn = NCCC[C@H](N)C(=O)O; Abu = CC[C@H](N)C(=O)O; Hexanoyl = CCCCCC(=O)*; Aib = CC(C)(N)C(=O)O

As to “C6-HSDAVFTEQY(OMe)TOrnLRAibQLAAbuAibOrnY(OMe)LQSIOrnOrnGGPSSGAPPPC(PEG20K)C(PEG20K)-NH2 (HSDAVFTEQYTXLRXQLAXXXYLQSIXXGGPSSGAPPPCC; C6 acyl, non-natural residues, two PEG20K, C-terminal amide; Synthetic sequence PEGylated VPAC2 receptor agonist) [Agonist P582]”, the IC50 in data set [1] and in data set [2] was more than 25000 nM throughout.
“C6-HSDAVFTEQY(OMe)TOrnLRAibQLAAbuAibOrnYAibQSIOrnOrnGGPSSGAPPPC(PEG20K)C(PEG20K)-NH2 (HSDAVFTEQYTXLRXQLAXXXYXQSIXXGGPSSGAPPPCC; C6 acyl, two PEG20K, C-terminal amide; Synthetic sequence PEGylated VPAC2 receptor agonist) [Agonist P521]”: in data set [3], the “72 h stab (%)” value stood at 294%. Also, in data set [4], the AUC0-last amounted to 7633 ng·h/mL, the Cl/F is 0.217 mL/min/kg, the Cmax is given as 233 ng/mL and the Tmax was 12 h. The substance also yielded a T½ in data set [4] of 19 h.
On to “C6-HSDAVFTEQY(OMe)TOrnLRAibQLAAbuAibOrnYLQAibIOrnC(PEG20K)OrnGGPSSGAPPPC(PEG20K)-NH2 (HSDAVFTEQYTXLRXQLAXXXYLQXIXCXGGPSSGAPPPC; C6 acyl, two PEG20K, C-terminal amide; Synthetic sequence PEGylated VPAC2 receptor agonist) [Agonist P553]”, for which the IC50 in data set [1] and in data set [2] was more than 25000 nM throughout.
For the substance “C6-HSDAVFTEQY(OMe)TOrnLRAibQLAAbuAibOrnYLQAibIOrnC(PEG40K)OrnGGPSSGAPPPS-NH2 (HSDAVFTEQYTXLRXQLAXXXYLQXIXCXGGPSSGAPPPS; C6 acyl, PEG40K on Cys, C-terminal amide; Synthetic sequence PEGylated VPAC2 receptor agonist) [Agonist P537]”, the IC50 in data set [1] and in data set [2] was more than 25000 nM each time.
“C6-HSDAVFTEQY(OMe)TOrnLRAibQLAAbuAibOrnYLQAibIOrnOrnC(PEG20K)GGPSSGAPPPC(PEG20K)-NH2 (HSDAVFTEQYTXLRXQLAXXXYLQXIXXCGGPSSGAPPPC; C6 acyl, non-natural residues, two PEG20K, C-terminal amide; Synthetic sequence PEGylated VPAC2 receptor agonist) [Agonist P580]”: the IC50 in data set [1] and in data set [2] was more than 25000 nM throughout.
Regarding “C6-HSDAVFTEQY(OMe)TOrnLRAibQLAAbuAibOrnYLQSIOrnC(PEG40K)OrnGGPSSGAPPPS-NH2 (HSDAVFTEQYTXLRXQLAXXXYLQSIXCXGGPSSGAPPPS; C6 acyl, PEG40K on Cys, C-terminal amide; Synthetic sequence PEGylated VPAC2 receptor agonist) [Agonist P539]”, in data set [3], the “24 h stab (%)” value turned out to be 123%. In addition, in data set [4], the AUC0-last is 4013 ng·h/mL, the Cl/F was 0.417 mL/min/kg, the Cmax is recorded as 102 ng/mL and the Tmax is 24 h. This substance also registered a T½ in data set [4] of 15 h.
Regarding “C6-HSDAVFTEQY(OMe)TOrnLRAibQLAAbuAibOrnYLQSIOrnOrnC(PEG20K)GGPSSGAPPPC(PEG20K)-NH2 (HSDAVFTEQYTXLRXQLAXXXYLQSIXXCGGPSSGAPPPC; C6 acyl, two PEG20K, C-terminal amide; Synthetic sequence PEGylated VPAC2 receptor agonist) [Agonist P572]”, the IC50 in data set [1] and in data set [2] was more than 25000 nM each time.
In the case of “C6-HSDAVFTEQY(OMe)TOrnLRAibQLAbuAAibOrnYLQSIOrnOrnGGPSSGAPPPC(PEG20K)C(PEG20K)-NH2 (HSDAVFTEQYTXLRXQLXAXXYLQSIXXGGPSSGAPPPCC; C6 acyl, non-natural residues, two PEG20K, C-terminal amide; Synthetic sequence PEGylated VPAC2 receptor agonist) [Agonist P590]”, the IC50 in data set [1] and in data set [2] was more than 25000 nM throughout.
Turning to “C6-HSDAVFTEQY(OMe)TOrnLRAibQVAAAibK(CO(CH2)2SPEG20K)YLQSIOrnOrnGGPSSGAPPPS-NH2 (HSDAVFTEQYTXLRXQVAAXXYLQSIXXGGPSSGAPPPS; C6 acyl; PEG20K; non-natural residues; amide; Synthetic sequence PEGylated VPAC2 receptor peptide agonist) [Agonist P473]”, the “24 h stab (%)” value in data set [3] is 86%. The substance also gave an IC50 in data set [2] of more than 25000 nM.
The like results for “C6-HSDAVFTEQY(OMe)TOrnLRC(PEG40K)QVAAAibOrnYLQSIOrnOrnGGPSSGAPPPS-NH2 (HSDAVFTEQYTXLRCQVAAXXYLQSIXXGGPSSGAPPPS; N-terminal C6 acyl, PEG40K on Cys, C-terminal amide; Synthetic sequence PEGylated VPAC2 receptor agonist) [Agonist P483]” were, in that order, 22% and more than 25000 nM.
For “C6-HSDAVFTEQY(OMe)TOrnLRK(WPEG40K)QLAAbuAibOrnYLQAibIOrnOrnGGPSSGAPPPS-NH2 (Hexanoyl-HSDAVFTEQ[Tyr(OMe)(3)]T[Orn]LRK(WPEG40K)QLA[Abu][Aib][Orn]YLQ[Aib]I[Orn][Orn]GGPSSGAPPPS-NH2; reading uncertain) [Agonist P557]”, the “24 h stab (%)” value in data set [3] is recorded as 131%.
For “C6-HSDAVFTEQY(OMe)TOrnLRK(WPEG40K)QVAAAibOrnYLQSIOrnOrnGGPSSGAPPPS-NH2 (HSDAVFTEQYTXLRXQVAAXXYLQSIXXGGPSSGAPPPS; C6 acyl, PEG40K on Lys, C-terminal amide; Synthetic sequence PEGylated VPAC2 receptor agonist) [Agonist P529]”, in data set [3], the “72 h stab (%)” value amounted to 119%.
For the substance “C6-HSDAVFTEQY(OMe)TRAibRAibQLAAAibOrnY(OMe)LQSIKAibOrnGGPSSGAPPPC(PEG40K)-NH2 (HSDAVFTEQYTRXRXQLAAXXYLQSIKXXGGPSSGAPPPC; C6 acyl; PEG40K; non-natural residues; amide; Synthetic sequence PEGylated VPAC2 receptor peptide agonist) [Agonist P417]”, in data set [3], the “24 h stab (%)” value worked out at 265%. Also, in data set [2], the IC50 is more than 25000 nM.

One may read the IC50 as the concentration needed to halve the response being measured. The term Cmax denotes the peak of the concentration-time curve. For orientation: Tmax means the time at which the peak concentration occurs.
